Source: PMC7929516, “Hallmarks of Alpha- and Betacoronavirus non-structural protein 7+8 complexes” (Science Advances, 2021)
Positions count from the first letter of the chain named.

B1: FIPV nsp7 (natural protein)
chain: SKLTEMKCTNVVLLGLLSKMHVESNSKEWNYCVGLHNEINLCDDPDAVLEKLLALIAFFLSKHNTCDLSDLIESYFENTTILQ
notes: also called feline CoV nsp7
B2: TGEV nsp7 (natural protein)
chain: B1 chain with D46E, A47I, D70E
B3: MERS-CoV nsp7 (natural protein)
chain: SKLTDLKCTSVVLLSVLQQLHLEANSRAWAFCVKCHNDILAATDPSEAFEKFVSLFATLMTFSGNVDLDALASDIFDTPSVLQ
B4: HCoV-229E nsp7 (natural protein)
chain: SKLTDLKCTNVVLMGILSNMNIASNSKEWAYCVEMHNKINLCDDPETAQELLLALLAFFLSKHSDFGLGDLVDSYFENDSILQ
B5: PEDV nsp7 (natural protein)
chain: SKLTDIKCSNVVLLGCLSSMNVSANSTEWAYCVDLHNKINLCNDPEKAQEMLLALLAFFLSKNSAFGLDDLLESYFNDNSMLQ

How the values were obtained:
[1] = target: SARS-CoV nsp7-8-His6 precursor (SARS-CoV (strain Frankfurt-1)); assay: native MS
[2] = target: PEDV nsp7-8-His6 precursor (PEDV (strain CV777))
[3] = target: HCoV-229E nsp7-8-His6 precursor (HCoV-229E); assay: native MS
[4] = target: SARS-CoV-2 nsp7-8-His6 precursor (SARS-CoV-2); assay: native MS
native MS = target: the molecule itself; assay: native MS

Molecule | stoichiometry N (native MS) | other results
SARS-CoV nsp7-8-His6 precursor (domain or fragment) |  | stoichiometry N [1]: 2
PEDV nsp7-8-His6 precursor (domain or fragment) |  | stoichiometry N [2]: 2
HCoV-229E nsp7-8-His6 precursor (domain or fragment) |  | stoichiometry N [3]: 2
SARS-CoV-2 nsp7-8-His6 precursor (domain or fragment) |  | stoichiometry N [4]: 2
B1 | 2 | 
B2 | 2 | 
B3 | 2 | 
B4 | 2 | 
B5 | 2 | 
